According to patent US20200079851A1 (University of Texas, published 2020):
Numbering of substitutions follows the chain as printed. One block for each binder: values may come before it.

Columns and labels:
human LILRB4 [1] = target: T1, human LILRB4 (human, UniProt Q8NHJ6 22-259, limits assumed); test: ELISA
T1 construct: also called leukocyte immunoglobulin-like receptor subfamily B member 4

human LILRB4 [2] = target: T1, human LILRB4; test: ELISA, OD450 against antibody concentration
human LILRB4 [3] = target: T1, human LILRB4; test: ELISA, OD450 against antibody concentration; remark: listed apart in the source
LILRB4-ECD-Fc = target: T2, LILRB4-ECD-Fc (human, UniProt Q8NHJ6 27-259); test: ELISA, mAb titrated
T2 construct: also called LILRB4-Fc; LILRB4 ECD-Fc fusion protein; not shown: Fc part

[4] = target: T3, LILRB4 D1 (first Ig-like domain) Fc fusion protein (human, UniProt Q8NHJ6 27-118); test: ELISA, mAb titrated
T3 construct: also called D1 of LILRB4; not shown: Fc part

human LILRB4 [5] = target: T1, human LILRB4; test: ELISA, OD450 against antibody concentration; remark: listed apart in the source
LILRB1 = target: T4, LILRB1 (human, UniProt Q8NHL6 24-458, limits assumed); test: cross-reactivity test on the LILRBs (ELISA per paragraph 433)
T4 construct: also called leukocyte immunoglobulin-like receptor subfamily B member 1

LILRB2 [6] = target: T5, LILRB2 (human, UniProt Q8N423 22-458, limits assumed); test: as above
T5 construct: also called leukocyte immunoglobulin-like receptor subfamily B member 2

LILRB3 [7] = target: T6, LILRB3 (human, UniProt O75022 24-443, limits assumed); test: as above
T6 construct: also called leukocyte immunoglobulin-like receptor subfamily B member 3

LILRB5 [8] = target: T7, LILRB5 (human, UniProt O75023 24-458, limits assumed); test: as above
D2 = target: T8, D2; test: matrix of binding to LILRB4 domain-Fc fusions (FIG. 47); ELISA per paragraph 433
T8 construct: also called LILRB4 D2-hIgG1-Fc; second Ig-like domain of LILRB4 as Fc fusion

SR = target: T9, SR; test: as above
T9 construct: also called LILRB4 SR-hIgG1-Fc; stalk region of LILRB4 as Fc fusion

human LILRB4 [9] = target: T1, human LILRB4; test: ELISA, mAb titrated on the WT protein of the LILRB4 mutant series of FIG. 52 (construct limits not stated)
D2-SR-Fc = target: T10, D2-SR-Fc; test: ELISA, mAb titrated
T10 construct: also called D2-SR-WT

LILRB3 [10] = target: T6, LILRB3; test: cross-reactivity ELISA (FIG. 46)
LILRB5 [11] = target: T7, LILRB5; test: cross-reactivity ELISA (FIG. 46)
D2-SR-M16(210-259) = test: ELISA, mAb 139 titrated
human LILRB4 [12] = target: T1, human LILRB4; test: ELISA, OD450 against antibody concentration; remark: listed apart in the source
[13] = target: T3, LILRB4 D1 (first Ig-like domain) Fc …; test: matrix of binding to LILRB4 domain-Fc fusions (FIG. 47); ELISA per paragraph 433
human LILRB4 [14] = target: T1, human LILRB4; test: ELISA, OD450 against antibody concentration; remark: listed apart in the source
human LILRB4 [15] = target: T1, human LILRB4; test: reactivity table, assay not named on the sheet
LILRB3 [16] = target: T6, LILRB3; test: reactivity table, assay not named on the sheet
LILRB5 [17] = target: T7, LILRB5; test: reactivity table, assay not named on the sheet
LILRB2 [18] = target: T5, LILRB2; test: flow cytometry on LILRB2-overexpressing 293T cells, mAb at 2 ug/ml
human LILRB4 [19] = target: T1, human LILRB4; test: ELISA, OD450 against antibody concentration; remark: listed apart in the source
human LILRB4 [20] = target: T1, human LILRB4; test: ELISA, OD450 against antibody concentration; remark: listed apart in the source
human LILRB4 [21] = target: T1, human LILRB4; test: ELISA, OD450 against antibody concentration; remark: listed apart in the source

T5 sequence (Q8N423 22-458 limits assumed): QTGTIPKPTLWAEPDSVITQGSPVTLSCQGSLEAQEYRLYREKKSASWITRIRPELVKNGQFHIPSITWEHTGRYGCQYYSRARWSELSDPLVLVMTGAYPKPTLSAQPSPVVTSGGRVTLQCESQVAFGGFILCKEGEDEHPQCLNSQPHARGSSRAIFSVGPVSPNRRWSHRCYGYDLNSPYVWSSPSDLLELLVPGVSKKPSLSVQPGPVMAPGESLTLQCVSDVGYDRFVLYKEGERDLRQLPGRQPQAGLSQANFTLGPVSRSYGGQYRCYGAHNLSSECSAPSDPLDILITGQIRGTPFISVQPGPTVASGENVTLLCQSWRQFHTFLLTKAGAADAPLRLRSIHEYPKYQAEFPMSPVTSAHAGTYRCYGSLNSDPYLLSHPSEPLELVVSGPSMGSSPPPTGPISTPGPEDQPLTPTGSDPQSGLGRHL
T7 sequence (O75023 24-458 limits assumed): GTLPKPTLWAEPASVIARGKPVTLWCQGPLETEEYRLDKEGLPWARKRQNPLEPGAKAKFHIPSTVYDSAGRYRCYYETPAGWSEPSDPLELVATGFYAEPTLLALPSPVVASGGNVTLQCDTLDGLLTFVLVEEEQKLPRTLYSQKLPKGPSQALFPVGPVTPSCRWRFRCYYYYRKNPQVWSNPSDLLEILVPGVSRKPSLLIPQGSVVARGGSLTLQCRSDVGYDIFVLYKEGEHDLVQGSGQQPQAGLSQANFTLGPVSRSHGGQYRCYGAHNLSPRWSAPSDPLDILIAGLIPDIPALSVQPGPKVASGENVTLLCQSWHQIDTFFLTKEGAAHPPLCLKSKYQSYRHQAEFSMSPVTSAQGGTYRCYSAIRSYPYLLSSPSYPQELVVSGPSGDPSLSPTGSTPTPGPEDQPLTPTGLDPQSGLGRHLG
T4 sequence (Q8NHL6 24-458 limits assumed): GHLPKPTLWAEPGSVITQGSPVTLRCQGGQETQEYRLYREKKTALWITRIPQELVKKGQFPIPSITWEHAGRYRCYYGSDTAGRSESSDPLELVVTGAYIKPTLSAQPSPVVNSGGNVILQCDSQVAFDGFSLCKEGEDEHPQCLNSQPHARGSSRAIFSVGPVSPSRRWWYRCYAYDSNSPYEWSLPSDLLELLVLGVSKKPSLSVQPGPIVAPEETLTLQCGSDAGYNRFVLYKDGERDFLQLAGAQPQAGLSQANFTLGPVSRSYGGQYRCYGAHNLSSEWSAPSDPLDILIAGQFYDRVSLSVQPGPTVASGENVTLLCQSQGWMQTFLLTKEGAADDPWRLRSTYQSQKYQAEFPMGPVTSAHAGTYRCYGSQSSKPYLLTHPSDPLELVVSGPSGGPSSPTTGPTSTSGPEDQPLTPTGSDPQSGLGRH
T8 sequence (fusion chain, as listed by the source): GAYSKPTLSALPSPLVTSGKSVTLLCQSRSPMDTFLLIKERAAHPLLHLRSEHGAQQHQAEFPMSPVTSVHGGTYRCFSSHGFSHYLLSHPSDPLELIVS
T9 sequence (fusion chain, as listed by the source): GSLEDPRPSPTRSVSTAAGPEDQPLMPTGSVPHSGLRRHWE
T6 sequence (O75022 24-443 limits assumed): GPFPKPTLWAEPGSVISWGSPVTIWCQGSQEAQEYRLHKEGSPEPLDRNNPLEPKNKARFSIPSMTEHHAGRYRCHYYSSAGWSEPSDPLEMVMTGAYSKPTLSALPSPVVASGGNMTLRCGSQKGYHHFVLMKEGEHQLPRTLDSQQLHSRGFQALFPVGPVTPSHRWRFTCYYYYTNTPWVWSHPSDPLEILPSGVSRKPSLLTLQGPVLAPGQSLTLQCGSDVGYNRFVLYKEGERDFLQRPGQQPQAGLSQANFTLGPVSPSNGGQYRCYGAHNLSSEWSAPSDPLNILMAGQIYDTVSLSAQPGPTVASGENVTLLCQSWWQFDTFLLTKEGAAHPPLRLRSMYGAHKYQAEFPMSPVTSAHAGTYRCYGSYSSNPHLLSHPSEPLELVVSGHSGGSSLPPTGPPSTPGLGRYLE
T3 sequence (Q8NHJ6 27-118): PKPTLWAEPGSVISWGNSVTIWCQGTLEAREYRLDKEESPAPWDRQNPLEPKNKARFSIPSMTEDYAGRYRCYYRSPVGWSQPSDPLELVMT
Chain of D2-SR-M16(210-259) (chain, as listed by the source): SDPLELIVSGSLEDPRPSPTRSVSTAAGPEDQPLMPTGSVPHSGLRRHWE
T10 sequence (Q8NHJ6 119-259): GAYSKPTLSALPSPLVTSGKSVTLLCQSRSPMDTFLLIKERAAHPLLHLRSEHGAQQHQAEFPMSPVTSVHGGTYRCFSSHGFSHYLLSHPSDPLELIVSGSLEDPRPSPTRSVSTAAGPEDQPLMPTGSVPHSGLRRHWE

B1: anti-LILRB4 rabbit monoclonal antibody #156-1 (antibody, V domains shown)
VH: QSVKESEGDLVKPGASLTLTCRASGFSFSSDYNMCWVRQAAGKGLEWIACIGVGTSGKTAYATWAKGRFTISRSSSTTVALQMTSLTVADTATYFCARPSYGSGGEGGGSGLWGPGTLVTISS
VL: ELDLTQTPASVSEPVGGTVTIKCQASQSIHSDLAWYQQKPGQRPKLLIYVASYLASGVPSRFSGSGSGTEYTLTISDLECADAATYYCQSTYYGSDYVGGAFGGGTEVVVK
notes: Rabbit mAb
EC50 (human LILRB4 [1]): 0.0828 nM
EC50 (human LILRB4 [2]): 0.0124 µg/mL

B2: anti-LILRB4 rabbit monoclonal antibody #6 (antibody, V domains shown)
VH: QSVKESGGRLVTPGTPLTLTCTASGFSLSTYYIDWVRQAPGRGLEYIGVINPGGSAVYATWAKGRFTISRTSTTVDLKMTSLTTEDTATYFCARGWSRGDLWGQGTLVTISS
VL: ELDMTQTPSPVSAAVGGTVTIKCQSSQNVYDDDTLSWYQQKPGQPPKLLIYDASKLASGVPSRFKGSGSGTQFTLTISGVQCDDAATYYCLGVFHDAADNAFGGGTELEIK
notes: Rabbit mAb
EC50 (human LILRB4 [1]): 0.0767 nM
EC50 (human LILRB4 [3]): 0.0115 µg/mL

B4: anti-LILRB4 rabbit monoclonal antibody #139 (antibody, V domains shown)
VH: EQSLEESGGRLVTPGTPLTLTCTVSGFSLNSYAMAWVRQAPGKGLEWIGIIGLSTMTYYASWVNGRFTISKTSTTVDLKMTSLTTEDTATYFCVRNDVYWAFNLWGQGTLVTVSS
VL: ELDLTQTPSSVSAGVGGTVSISCQSSESVVNNHALSWYQQKPGQPPKLLIYKASTLASGVPSRFSGSGSGAQFTLTISGVQCDDAATYYCQGGFYSGISDYPFGGGTEVEIK
EC50 (human LILRB4 [1]): 0.0832 nM
EC50 (read off the curve) (D2-SR-Fc): ~0.06 µg/mL
binding result (LILRB3 [10]): binds
binding result (LILRB5 [11]): binds
binding result (D2-SR-M16(210-259)): no binding (tested: 1000 ng/ml)
EC50 (human LILRB4 [12]): 0.0125 µg/mL
binding result (LILRB1): no binding
binding result (D2): binds
binding result (SR): no binding
binding result [13]: no binding

B5: anti-LILRB4 rabbit monoclonal antibody #214 (antibody, V domains shown)
VH: QSVKESGGRLVTPGTPLTLTCTVSGFSLSSYWMHWVRQAPGKGLEWVGVVSVSGNFYYATWAKGRFTISKTSTTVDLKITSPTIEDTAFYFCTMSFALWGQGTLVTISS
VL: ELVMTQTASPVSAAVGGTVTINCQSSQSVYSNNNLGWLKQKPGQPPKELIYYASTLASGVPSRFKGSGSGTQFTLTISDLECDDAATYYCVGGYGCSSADCSVFGGGTEVEIK
notes: Rabbit mAb
EC50 (human LILRB4 [14]): 0.00764 µg/mL

B6: anti-LILRB mAb C39 (antibody, V domains shown)
VH: EVQLVESGGGLVQPGGSLKLSCAASGFTFSSYGMSWVRQTPDKRLELVATIDSNGGGTYYPDSVKGRFTISRDNAKNTLYLQMSSLKSEDTAMHYCARDGGGSYGYYYAMDYWGQGTSVTVSS
VL: DIVMSQSPSSLAVSAGEKVTMRCKSSQSLLNSRTRKSYLAWYQQKSGQSPKLLIYWASTRESGVPDRFTGSGSGTDFTLTISSVQAEDLAVYYCKQSYNLPWTFGGGTKLEIK
notes: mAb against LILRB2
binding result (human LILRB4 [15]): binds
binding result (LILRB3 [16]): binds
binding result (LILRB5 [17]): binds
% of cells in the positive gate (LILRB2 [18]): 18.7%

B9: anti-LILRB4 rabbit monoclonal antibody #210 (antibody, V domains shown)
VH: EQSVEESGGRLVTPGTPLTLTCTVSGFSLSSYIMGWVRQARGKGLEYIGAINTDGATYYATWAKGRFTISRTSTTVHLKVTSPTTEDTATYFCARSLAPGDSNINLWGQGTLVTISS
VL: ELVLTQTPSPVSAAVGGTVTISCQSSESVYRNNRLAWYQQKPGQPPKRLIYLASTLASGVPSRFKGSGSGTQFTLTISDVQCDDAAAYYCAGDSGVGIIAFGGGTEVEIK
EC50 (human LILRB4 [1]): 0.0997 nM
binding result (LILRB3 [10]): binds
binding result (LILRB5 [11]): binds
EC50 (human LILRB4 [21]): 0.0149 µg/mL
binding result (LILRB1): no binding
binding result (LILRB2 [6]): no binding
binding result (D2): no binding
binding result (SR): no binding

The remaining binders from weak to strong by EC50 (human LILRB4 [1]), led by results:

EC50 (human LILRB4 [1]): 0.184 nM
EC50 (read off the curve) (LILRB4-ECD-Fc): ~0.02 µg/mL
EC50 (read off the curve) [4]: ~0.02 µg/mL
EC50 (human LILRB4 [5]): 0.0276 µg/mL
binding result (LILRB1): no binding
binding result (LILRB2 [6]): no binding
binding result (LILRB3 [7]): no binding
binding result (LILRB5 [8]): no binding
binding result (D2): no binding
binding result (SR): no binding
EC50 (read off the curve) (human LILRB4 [9]): ~0.01 µg/mL
B3: anti-LILRB4 rabbit monoclonal antibody #128-3 (antibody, V domains shown)
VH: EQSLEESGGDLVTPGASLTLTCKASGIDFSNHYYIYWVRQAPGKGLEWIGCIFSGDSASTYYASWAKGRFTISKSSSPTVTLQMTSLTAADTATYFCARGMSTNDWASDLWGPGTMVTVSS
VL: ELVMTQTPASVSAAVGGTVTINCQASESINSIYLAWYQQKPGQRPKLLIYRASTLASGVSSRFKGSASGTGFTLTISDLECADAATYYCQQSYDWGDVENTFGGGTEVEIK

EC50 (human LILRB4 [1]): 0.134 nM
EC50 (human LILRB4 [20]): 0.02 µg/mL
B8: anti-LILRB4 rabbit monoclonal antibody #71-1 (antibody, V domains shown)
VH: QSVEESGGGLVKPGASLTLTCTASGFSFSSSYHMCWVRQAPGKGLEWIGCIATGYGSTYYASWAKGRFTISKTSSTTVTLQVPSLTAADTATCFCARGYYRYTSDSYGYFDLWGPGTLVTISS
VL: ELDLTQTASPVSAAVGGTVTVNCQASQSISSGYLSWYQQKPGQPPKLLIYYASRLASGVPSRFSGSGSGTEYTLTISGVQCDDAATYYCLYVSYSGTTTDNAFGGGTDVEIK
notes: Rabbit mAb

EC50 (human LILRB4 [1]): 0.0901 nM
EC50 (human LILRB4 [19]): 0.0135 µg/mL
binding result (LILRB1): no binding
binding result (LILRB2 [6]): no binding
binding result (LILRB3 [7]): no binding
binding result (LILRB5 [8]): no binding
binding result (D2): no binding
binding result (SR): no binding
B7: anti-LILRB4 rabbit monoclonal antibody #129 (antibody, V domains shown)
VH: EQSVKESGGGLVKPGASLTLTCTASGFSFSSSYHMCWVRQAPGKGLEWIGCIATGYGSTYYASWAKGRFTISKTSSTTVTLQVPSLTAADTATCFCARGYYRYTSDSYGYFDLWGPGTLVTISS
VL: B8 VL with D3V, S95D, D108E
